Data as given in PMC8699718, “A structurally conserved site in AUP1 binds the E2 enzyme UBE2G2 and is essential for ER-associated degradation” (PLoS Biology, 2021).

T1: UBE2G2 (Homo sapiens, UniProt P60604)
T1 construct: made in house
T1 sequence (P60604 1-165): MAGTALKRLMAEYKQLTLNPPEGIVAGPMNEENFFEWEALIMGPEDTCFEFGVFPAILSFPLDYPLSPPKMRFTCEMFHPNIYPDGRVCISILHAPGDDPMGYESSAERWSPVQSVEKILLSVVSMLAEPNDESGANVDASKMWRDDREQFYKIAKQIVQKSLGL


Tests used:
UBE2G2 = target: T1, UBE2G2; assay: GST pulldown of in vitro translated 35S-UBE2G2; type: binding; conditions: GST-AUP1 aa 292 to 410 on glutathione beads, ~3 pmol GST fusion, ~0.2 pmol E2, overnight 4°C, pH 7.4
Protocol: Fig 3 The AUP1–UBE2G2 interaction is required for ERAD. (A) Equimolar amounts of GST-AUP1 (aa 292 to 410) or GST were immobilized on glutathione beads and binding to the indicated in vitro translated ^35S-labeled E2s was assessed. Left panel is 5% of input used for binding. E2s are referred to by their unique alpha-numeric designation (e.g., UBE2G1 and UBE2J1). (B) HT1080 or UBE2G2 KO cells were transfected with INSIG-1-MYC and degradation assessed by CHX chase. […] (D) Cells were transfected with NHK-MYC and HA-ubiquitin and ubiquitination of NHK assessed following proteasome inhibition and IP (right panel). Left panel is 10% of total cell lysate used for IP, indicating no discernable change in total ubiquitination. (E) Levels of endogenous HRD1 were monitored by CHX chase in the indicated cell types. (F) Ubiquitination of endogenous HRD1 was assessed following IP with HRD1 antiserum. Arrow in upper panel indicates migration of unmodified HRD1. Control immunoprecipitates using rabbit serum are shown for comparison. The data underlying this figure can be found in S1 Data. aa, amino acid; AUP1, ancient ubiquitous protein 1; CHX, cycloheximide; ERAD, endoplasmic reticulum–associated degradation; IP, immunoprecipitation; KO, knockout; WT, wild type.
(§1) Fig 6 Disruption of UBE2G2:G2BR^AUP1 interaction abrogates AUP1 function in cells. (A) GST or indicated GST-AUP1 fusions (aa 292 to 410, expression shown in Coomassie-stained gel) were immobilized on glutathione beads and binding to ^35S-UBE2G2 was assessed as in Fig 3A. Mutations include 2A (R382A/Q383A), 2E (R382E/Q383E), and 5E (R382E/Q383E/K390E/R398E/R400E). (B) AUP1 KO cells were transfected with NHK-HA and forms of full-length AUP1-FLAG with the indicated point mutations from (A) and NHK degradation assessed by CHX chase. (C) Binding assay performed as in (A) with AUP1 mutants predicted to disrupt hydrophobic interactions with UBE2G2. (D) Cellular assay performed as in (B) with AUP1-FLAG mutants that disrupt interactions with UBE2G2 in vitro in (C). The data underlying this figure can be found in S1 Data. aa, amino acid; AUP1, ancient ubiquitous protein 1; CHX, cycloheximide; G2BR, UBE2G2 Binding Region; KO, knockout; WT, wild type.
In vitro translated ^35S methionine-labeled E2s were generated using the E. coli T7-S30 Extract System (Promega) and excess ^35S methionine was removed by desalting twice with Zeba Spin Desalting Columns (Thermo Scientific). GST fusion proteins were quantified by Coomassie blue staining. Moreover, 0.1 μg of GST fusion protein (approximately 3 pmol) was prebound to GS 4B (GE Healthcare) and then incubated with approximately 10^5 cpm of ^35S methionine-labeled E2 (approximately 0.2 pmol) in 200 μl Binding Buffer (25 mM Tris-HCl, pH 7.4, 50 mM NaCl, 5 mM DTT, 0.5% IGEPAL CA-630) overnight at 4°C. Beads were extensively washed in Binding Buffer, resolved on Bis/Tris polyacrylamide gels under reducing conditions, dried and visualized on a Typhoon FLA 7000 (GE Healthcare). Binding was quantified using ImageQuant Software.

[1] = tested on: NHK (Null Hong Kong variant of alpha1-antitrypsin); assay: CHX chase: NHK degradation in HT1080 AUP1 KO cells; type: cell-based, human; conditions: for restoration of NHK degradation: full-length or deleted AUP1-FLAG re-expressed in HT1080 AUP1 KO cells, CHX 50 μg/mL
Protocol: Fig 1 The G2BR of AUP1 is required for ERAD of NHK. (A) HT1080 or cells in which HRD1 was knocked out by CRISPR/Cas-9 (HRD1 KO) were transfected with plasmid encoding carboxyl-terminally HA-tagged NHK. Cells were treated with CHX for the indicated times to inhibit protein synthesis and NHK-HA degradation monitored by western blot. GFP and HSP60 serve as transfection efficiency and gel loading controls, respectively. (B) HT1080 or cells in which either AUP1 or gp78 was knocked out (AUP1 KO or gp78 KO) were transfected with NHK-HA and their degradation assessed. (C) AUP1 KO cells were transfected with NHK-HA and empty vector or plasmid encoding carboxyl-terminally FLAG-tagged AUP1 and NHK degradation assessed. (D) Indicated cells were transfected with plasmid encoding carboxyl-terminally MYC-tagged INSIG-1 and assessed for INSIG-1 degradation. (E) Schematic representation of AUP1 in the ER membrane and deletion mutants used in subsequent experiments. Amino acid residues are numbered spanning each domain. (F) AUP1 KO cells were transfected with NHK-HA and plasmids encoding the indicated FLAG-tagged AUP1 WT or deletion mutants and assessed for NHK degradation. (G) HEK293 (Parental) or HEK293 AUP1 KO cells were assessed for degradation of NHK-HA. (H) HEK293 AUP1 KO cells were assessed for NHK-HA degradation as in (F). Markers represent apparent molecular weight in kDa. The data underlying this figure can be found in S1 Data. aa, amino acid; AUP1, ancient ubiquitous protein 1; CHX, cycloheximide; ER, endoplasmic reticulum; ERAD, endoplasmic reticulum–associated degradation; G2BR, UBE2G2 Binding Region; KO, knockout; NHK, Null Hong Kong; WT, wild type.
as §1
Fig 8 Recruitment of UBE2G2 to the ER membrane and activation by G2BR^AUP1 is required for ERAD. (A) HT1080 or AUP1 KO cells were transfected with NHK-HA and either empty vector or MYC-UBE2G2 and NHK turnover assessed by CHX chase. (B) AUP1 KO cells were transfected with NHK-HA and GFP fusions of either a scrambled G2BR sequence (SCR) or G2BR^AUP1 and NHK turnover and levels of endogenous UBE2G2 assessed. Luciferase and β-actin served as transfection efficiency and gel loading controls, respectively. (C) AUP1 KO cells were transfected with NHK-HA, MYC-UBE2G2, and either GFP-SCR or GFP-G2BR^AUP1 and NHK turnover assessed. (D) Membrane fractionation was performed on HT1080 or AUP1 KO cells transfected with either empty vector or AUP1-FLAG and localization of UBE2G2 assessed by western blotting. Localization of β-actin (cytosol) and Calnexin (ER membrane) were used as controls for cytosolic (C) and membrane (M) fractions, respectively. (E) Membrane fractionation of AUP1 KO cells transfected with either MYC-UBE2G2 or TM-UBE2G2. (F) HT1080 cells were transfected with TM-UBE2G2 and its localization assessed by confocal microscopy. Images shown are from an optical section after deconvolution. HA-tagged UBE2J2, an ER-localized E2, serves as an ER marker. […]

| Molecule | binding to UBE2G2 (UBE2G2) | restoration of NHK degradation [1] | NHK degradation, doubled amount of plasmid ([1]; repeat transfection with doubled amount of mutant, reviewer response) |
| --- | --- | --- | --- |
| A397D: AUP1 point mutant; GST-AUP1 aa 292 to 410 in vitro, full-length AUP1-FLAG in cells (protein, left off: GST, end not stated, kept, AUP1 point mutant; GST-AUP1 aa 292 to 410 in vitro, full-length AUP1-FLAG in cells) SPDVQLATLAQRVKEVLPHVPLGVIQRDLAKTGCVDLTITNLLEGAVAFMPEDITKGTQSLPTASASKFPSSGPVTPQPTALTFAKSSWARQESLQERKQALYEYDRRRFTERRAQEAD | Binding was similarly lost | failed to restore NHK degradation | unable to convince ourselves that there is any significant degradation |
| Y394D: AUP1 point mutant (GST-AUP1 aa 292 to 410) (protein, left off: GST, end not stated, kept) SPDVQLATLAQRVKEVLPHVPLGVIQRDLAKTGCVDLTITNLLEGAVAFMPEDITKGTQSLPTASASKFPSSGPVTPQPTALTFAKSSWARQESLQERKQALDEYARRRFTERRAQEAD | reduced binding | – | – |
| AUP1-FLAG: full-length epitope-tagged AUP1 (protein, UniProt Q9Y679 1-410, looked up, full-length FLAG tag) MELPSGPGPERLFDSHRLPGDCFLLLVLLLYAPVGFCLLVLRLFLGIHVFLVSCALPDSVLRRFVVRTMCAVLGLVARQEDSGLRDHSVRVLISNHVTPFDHNIVNLLTTCSTPLLNSPPSFVCWSRGFMEMNGRGELVESLKRFCASTRLPPTPLLLFPEEEATNGREGLLRFSSWPFSIQDVVQPLTLQVQRPLVSVTVSDASWVSELLWSLFVPFTVYQVRWLRPVHRQLGEANEEFALRVQQLVAKELGQTGTRLTPADKAEHMKRQRHPRLRPQSAQSSFPPSPGPSPDVQLATLAQRVKEVLPHVPLGVIQRDLAKTGCVDLTITNLLEGAVAFMPEDITKGTQSLPTASASKFPSSGPVTPQPTALTFAKSSWARQESLQERKQALYEYARRRFTERRAQEAD | – | restored NHK degradation | – |
| 2A: AUP1 point mutant R382A/Q383A (GST-AUP1 aa 292 to 410) (protein, UniProt Q9Y679 1-410, looked up, variant R382A Q383A, GST fusion aa 292-410) Lipid droplet-regulating VLDL …: MELPSGPGPERLFDSHRLPGDCFLLLVLLLYAPVGFCLLVLRLFLGIHVFLVSCALPDSVLRRFVVRTMCAVLGLVARQEDSGLRDHSVRVLISNHVTPFDHNIVNLLTTCSTPLLNSPPSFVCWSRGFMEMNGRGELVESLKRFCASTRLPPTPLLLFPEEEATNGREGLLRFSSWPFSIQDVVQPLTLQVQRPLVSVTVSDASWVSELLWSLFVPFTVYQVRWLRPVHRQLGEANEEFALRVQQLVAKELGQTGTRLTPADKAEHMKRQRHPRLRPQSAQSSFPPSPGPSPDVQLATLAQRVKEVLPHVPLGVIQRDLAKTGCVDLTITNLLEGAVAFMPEDITKGTQSLPTASASKFPSSGPVTPQPTALTFAKSSWAAAESLQERKQALYEYARRRFTERRAQEAD | unable to disrupt UBE2G2 binding | – | – |
| 5E: AUP1 point mutant; GST-AUP1 aa 292 to 410 in vitro, full-length AUP1-FLAG in cells (protein, UniProt Q9Y679 1-410, looked up, variant R382E Q383E K390E R398E R400E, GST or FLAG tag, AUP1 point mutant; GST-AUP1 aa 292 to 410 in vitro, full-length AUP1-FLAG in cells) Lipid droplet-regulating VLDL …: MELPSGPGPERLFDSHRLPGDCFLLLVLLLYAPVGFCLLVLRLFLGIHVFLVSCALPDSVLRRFVVRTMCAVLGLVARQEDSGLRDHSVRVLISNHVTPFDHNIVNLLTTCSTPLLNSPPSFVCWSRGFMEMNGRGELVESLKRFCASTRLPPTPLLLFPEEEATNGREGLLRFSSWPFSIQDVVQPLTLQVQRPLVSVTVSDASWVSELLWSLFVPFTVYQVRWLRPVHRQLGEANEEFALRVQQLVAKELGQTGTRLTPADKAEHMKRQRHPRLRPQSAQSSFPPSPGPSPDVQLATLAQRVKEVLPHVPLGVIQRDLAKTGCVDLTITNLLEGAVAFMPEDITKGTQSLPTASASKFPSSGPVTPQPTALTFAKSSWAEEESLQEREQALYEYAEREFTERRAQEAD | loss of detectable UBE2G2 binding | failed to restore NHK degradation | – |
| 2E: AUP1 point mutant; GST-AUP1 aa 292 to 410 in vitro, full-length AUP1-FLAG in cells (protein, UniProt Q9Y679 1-410, looked up, variant R382E Q383E, GST or FLAG tag, AUP1 point mutant; GST-AUP1 aa 292 to 410 in vitro, full-length AUP1-FLAG in cells) Lipid droplet-regulating VLDL …: MELPSGPGPERLFDSHRLPGDCFLLLVLLLYAPVGFCLLVLRLFLGIHVFLVSCALPDSVLRRFVVRTMCAVLGLVARQEDSGLRDHSVRVLISNHVTPFDHNIVNLLTTCSTPLLNSPPSFVCWSRGFMEMNGRGELVESLKRFCASTRLPPTPLLLFPEEEATNGREGLLRFSSWPFSIQDVVQPLTLQVQRPLVSVTVSDASWVSELLWSLFVPFTVYQVRWLRPVHRQLGEANEEFALRVQQLVAKELGQTGTRLTPADKAEHMKRQRHPRLRPQSAQSSFPPSPGPSPDVQLATLAQRVKEVLPHVPLGVIQRDLAKTGCVDLTITNLLEGAVAFMPEDITKGTQSLPTASASKFPSSGPVTPQPTALTFAKSSWAEEESLQERKQALYEYARRRFTERRAQEAD | failed to disrupt UBE2G2 binding | restored degradation of NHK in the AUP1 KO cells, to a degree comparable to WT AUP1 | – |
